Laboratory results taken from US20190241619A1.

Target: HLA-B15 (human)
Experiment: experimental peptide-HLA binding affinity; method not described

Binding affinity [µM] | Substance
4.68 | HPV16 E7/15-23 peptide …
38.5 | HPV16 E7/15-24 peptide …
7.3 | HPV16 E7/15-25 peptide …
